What was measured:
lipoprotein lipase (LPL) [1] = molecular target: T1, lipoprotein lipase (LPL) (Bos taurus, UniProt P11151); assay: ITC measurement of LPL activity in human plasma with added regulators or inhibitors; assay type: biochemical, bovine; conditions: for effect on activity of LPL in plasma: LPL 0.6 nM
T1 construct: Bovine LPL was purified from milk; from tissue; host or cells: bovine milk
T1 sequence (P11151 29-478): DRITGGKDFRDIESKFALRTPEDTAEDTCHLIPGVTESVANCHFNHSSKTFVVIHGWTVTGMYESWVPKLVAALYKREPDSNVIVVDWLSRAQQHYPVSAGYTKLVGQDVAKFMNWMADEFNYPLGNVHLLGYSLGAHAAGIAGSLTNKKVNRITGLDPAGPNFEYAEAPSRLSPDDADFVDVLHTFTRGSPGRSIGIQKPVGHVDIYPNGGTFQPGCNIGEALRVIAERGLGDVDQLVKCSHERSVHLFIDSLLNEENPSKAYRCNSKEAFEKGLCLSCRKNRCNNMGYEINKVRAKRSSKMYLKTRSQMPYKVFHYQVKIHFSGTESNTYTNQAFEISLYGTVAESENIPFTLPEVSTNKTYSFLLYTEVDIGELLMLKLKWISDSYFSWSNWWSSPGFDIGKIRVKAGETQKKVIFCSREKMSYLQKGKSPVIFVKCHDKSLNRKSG
Description: Preparing the reagents—Bovine LPL was purified from milk (Bengtsson-Olivecrona & Olivecrona 1991) and dialysed to buffer containing 10 mM TRIS, pH 8.5 (4° C.), 4 mM sodium deoxycholate. Stock solutions of 0.5 mg/ml LPL were stored at −80° C. The N-terminal coiled-coil domain of human angiopoietin-like protein 4 (ANGPTL4), residues 26-184, was expressed in E. coli and purified as described (Robal et al. 2012). Full-length human angiopoietin-like protein 3 (ANGPTL3) expressed in Sf 21 cells was obtained from R&D Systems (USA). Apolipoprotein C-III0 was from human blood plasma (Bengtsson-Olivecrona & Sletten 1990). Apolipoprotein C-II and apolipoprotein A-V were expressed in E. coli and purified as described (Shen et al. 2010; Beckstead et al. 2003). A synthetic peptide corresponding to the N-terminal domain of human GPIHBP1, residues 23-51, was bought from Caslo (Denmark). The sequence of the peptide was as follows: […]. Antibodies (goat IgG) to human hepatic lipase were raised in a goat against hepatic lipase isolated from human post-heparin plasma (Olivecrona & Olivecrona 2000). The IgG fraction was isolated using Protein-A columns and the final preparation contained 5 mg protein per milliliter in 20 mM Na-phosphate buffer and 0.15 M NaCl (pH 7.4).
Sample preparation—Before experiments the human plasma samples were diluted 1.2 times with TRIS buffer pH 7.4 or with the additions specified for each experiment. The final concentration of TRIS was 20 mM in all cases. Stock solutions of LPL were diluted in cold 10 mM TRIS, pH 8.5, containing 4 mM sodium deoxycholate. In this buffer, LPL is stable for a long period of time, even at low protein concentrations The final concentration of deoxycholate during incubations with plasma or lipoproteins was 10 to 100 times lower than the initial. […] In experiments with post-heparin plasma, antibodies to hepatic lipase (in PBS) or the same volume of PBS only were added (180 μl of IgG or PBS was mixed with 360 μl of post-heparin plasma) and the mixture was then incubated for 2 hours on ice prior to experiments (Olivecrona & Olivecrona 2000). All samples were degassed under vacuum for 15 minutes before the ITC experiments.
(§1) ITC measurements—Most of the experiments were performed on an Nano ITC model 5300 (TA Instruments, USA) at 25° C. A MicroCal Auto-iTC200 (GE Healthcare) instrument was used for experiments regarding relationship between total heat production and released fatty acids. In a typical experiment performed by Nano ITC, the lipase substrate (plasma, Intralipid 20% or VLDL) with or without added ligands was placed into the calorimetric cell (1035 μl) and the syringe (250 μl) was filled with LPL-containing solution (bovine LPL or post-heparin plasma) (see FIG. 1A). MilliQ water was loaded into the reference cell (1032 μl). The stirring speed in the sample cell was 400 rpm. The baseline was left to stabilize for at least 1 hour before injections of LPL or post-heparin plasma. In all experiments, the first injection was 2 μl and after that single or sequential injections of 10 to 25 μl were made. The interval between the injections was from 200 s to 500 s. In experiments performed by MicroCal Auto-iTC200, 400 μl of lipase substrate (plasma), 400 μl of equilibration buffer (20 mM TRIS, pH 7,4) and a sufficient volume of LPL (0.8 μM) were placed on the loading plate. The calorimetric cell (200 μl) was rinsed with equilibration buffer and loaded with 200 μl of substrate in an automated fashion. The syringe was loaded with 40 μl of LPL-containing solution. The stirring speed in the sample cell was 600 rpm and the baseline was stabilized automatically. The first injection of LPL was 0.2 μl and the second injection was 2 μl. The experiment time was 1 hour to allow full hydrolysis of plasma triglycerides.After each experiment the Nano ITC sample cell was washed with the following solutions, one after the other: MilliQ water, 2% SDS, 40 mM NaOH and finally 95% ethanol. […]

lipoprotein lipase (LPL) [2] = molecular target: T1, lipoprotein lipase (LPL); assay: ITC measurement of Intralipid hydrolysis by LPL, activation by apoC-II; assay type: biochemical, bovine; conditions: Intralipid substrate
Description: The substrate mixture composition was as follows: 1 mg triglyceride/ml Intralipid, 10 mg/ml BSA, 10 IU/ml heparin, 0.15 M NaCl, 10 mM TRIS pH 7.4. […] Final concentration of LPL was 1.2 nM in all experiments.
Heat rate points at 200 s were obtained from FIG. 5a. The data were fitted using the following equation (Quinn et al. 1983): […]
as §1, with “[…] Raw ITC data were analysed using” for “The experiment time was 1 hour to allow full hydrolysis of plasma triglycerides.After each experiment”, “NanoAnalyze (TA Instruments) Or MicroCal Origin (GE Healthcare).” for “Nano ITC sample cell was washed with the following solutions, one after the other: MilliQ water, 2% SDS, 40 mM NaOH and finally 95% ethanol.”

Molecule: CCCCCCCCCCC[C@@H](C[C@@H]1OC(=O)[C@H]1CCCCCC)OC(=O)[C@H](CC(C)C)NC=O [THL, tetrahydrolipstatin, reference compound]
- immediate drop of the activity of LPL (lipoprotein lipase (LPL) [1]; 10 μM THL, human plasma, LPL 1 nM, unchanged afterwards): 80%
- THL concentration at which inhibition of LPL was detectable (lipoprotein lipase (LPL) [1]; human plasma, LPL 1 nM): 90 nM

Molecule: QQEEEEEDEDHGPDDYDEEDEDEVEEEET [N-terminal peptide of GPIHBP1, synthetic peptide corresponding to the N-terminal domain of human GPIHBP1, residues 23-51, reference compound]
- protection of LPL from inactivation by ANGPTL4 (lipoprotein lipase (LPL) [1]; 100 nM ANGPTL4, LPL 0.6 nM, TG 1 mM): could not protect LPL from inactivation

B1: apoC-II: Apolipoprotein C-II expressed in E. coli; activator of LPL (protein, UniProt P02655 29-101, looked up)
Apolipoprotein C-II: DEMPSPTFLTQVKESLSSYWESAKTAAQNLYEKTYLPAVDEKLRDLYSKSTAAMSTYTGIFTDQVLSVLKGEE
- estimated maximal activation factor of LPL (lipoprotein lipase (LPL) [2]; 1.2 nM LPL, apoC-II 0 to 1000 nM, heat rate at 200 s, model of Quinn et al. 1983): 4.2±1.2
- Kd (lipoprotein lipase (LPL) [2]; 1.2 nM LPL, heat rate at 200 s, model of Quinn et al. 1983, read-out: Kd value (affinity of apoC-II for LPL)): 22 ± 8 nM
- effect on stability of LPL (lipoprotein lipase (LPL) [2]; LPL not stable without apoC-II or below 100 nM): stabilized LPL

B2: apoA-V: apolipoprotein A-V expressed in E. coli (protein, UniProt Q6Q788 24-366, looked up)
Apolipoprotein A-V: RKGFWDYFSQTSGDKGRVEQIHQQKMAREPATLKDSLEQDLNNMNKFLEKLRPLSGSEAPRLPQDPVGMRRQLQEELEEVKARLQPYMAEAHELVGWNLEGLRQQLKPYTMDLMEQVALRVQELQEQLRVVGEDTKAQLLGGVDEAWALLQGLQSRVVHHTGRFKELFHPYAESLVSGIGRHVQELHRSVAPHAPASPARLSRCVQVLSRKLTLKAKALHARIQQNLDQLREELSRAFAGTGTEEGAGPDPQMLSEEVRQRLQAFRQDTYLQIAAFTRAIDQETEEVQQQLAPPPPGHSAFAPEFQQTDSGKVLSKLQARLDDLWEDITHSLHDQGHSHLGDP
- effect on activity of LPL in plasma (lipoprotein lipase (LPL) [1]; 10 nM apoA-V, TG 1 mM): did not change the activity of LPL
- effect on activity of LPL in plasma (lipoprotein lipase (LPL) [1]; 100 nM apoA-V, TG 1 mM): some inhibition was observed

B3: ANGPTL3: Full-length human angiopoietin-like protein 3 expressed in Sf 21 cells, from R&D Systems (protein, UniProt Q9Y5C1 1-460, looked up)
chain: MFTIKLLLFIVPLVISSRIDQDNSSFDSLSPEPKSRFAMLDDVKILANGLLQLGHGLKDFVHKTKGQINDIFQKLNIFDQSFYDLSLQTSEIKEEEKELRRTTYKLQVKNEEVKNMSLELNSKLESLLEEKILLQQKVKYLEEQLTNLIQNQPETPEHPEVTSLKTFVEKQDNSIKDLLQTVEDQYKQLNQQHSQIKEIENQLRRTSIQEPTEISLSSKPRAPRTTPFLQLNEIRNVKHDGIPAECTTIYNRGEHTSGMYAIRPSNSQVFHVYCDVISGSPWTLIQHRIDGSQNFNETWENYKYGFGRLDGEFWLGLEKIYSIVKQSNYVLRIELEDWKDNKHYIEYSFYLGNHETNYTLHLVAITGNVPNAIPENKDLVFSTWDHKAKGHFNCPEGYSGGWWWHDECGENNLNGKYNKPRAKSKPERRRGLSWKSQNGRLYSIKSTKMLIHPTDSESFE
modifications: full-length
notes: Full-length human angiopoietin-like protein 3 expressed in Sf 21 cells, from R&D Systems
- concentration at which effect on LPL in plasma was detectable (lipoprotein lipase (LPL) [1]; human plasma): detectable already at nanomolar concentrations
